Laboratory results: publication PMC5850324, “Interactions between the Hepatitis C Virus Nonstructural 2 Protein and Host Adaptor Proteins 1 and 4 Orchestrate Virus Release” (mBio, 2018)

B1: GLuc2-NS2 (hepatitis C virus nonstructural 2 protein, wild type) (natural protein)
chain: YDASVHGQIGAALLVLITLFTLTPGYKTLLSRFLWWLCYLLTLAEAMVQEWAPPMQVRGGRDGIIWAVAIFCPGVVFDITKWLLAVLGPAYLLKGALTRVPYFVRAHALLRMCTMVRHLAGGRYVQMVLLALGRWTGTYIYDHLTPMSDWAANGLRDLAVAVEPIIFSPMEKKVIVWGAETAACGDILHGLPVSARLGREVLLGPADGYTSKGWSLL
notes: cut product of the polyprotein; also called WT NS2; GLuc-NS2; source: 293T, transfected (PCA); Huh7.5, transfected, membrane fraction (co-IP) and knockout cells (PCA); not shown: GLuc2 luciferase fragment, N-terminal, kept

How the values were obtained:
Experiment in all cases: split reporter (BiFC, NanoBiT); protein fragment complementation assay (split luciferase): GLuc1-AP μ subunit and GLuc2-HCV protein transfected pairwise into 293T cells; luciferase at 24 h; normalized luminescence ratio (NLR), positive if NLR >25 (>2.2 SD above a random reference set); mutant panels plotted relative to WT; NS2-AP-1B also tested after treatment with compound 7745, 12i, sunitinib or erlotinib
[1] = molecular target: GLuc1-tagged μ subunit of the AP-4 complex (UniProt O00189)
[2] = molecular target: T1, GLuc-tagged T144A mutant AP-1B (μ subunit) (UniProt Q9Y6Q5 1-423, T144A); conditions: partners not purified
T1 construct: μ subunit of adaptor protein complex AP-1B with T144A; also called phosphorylation site mutant AP-1; source: transfected cells (PCA); not shown: GLuc1 luciferase fragment, N-terminal, kept
T1 sequence: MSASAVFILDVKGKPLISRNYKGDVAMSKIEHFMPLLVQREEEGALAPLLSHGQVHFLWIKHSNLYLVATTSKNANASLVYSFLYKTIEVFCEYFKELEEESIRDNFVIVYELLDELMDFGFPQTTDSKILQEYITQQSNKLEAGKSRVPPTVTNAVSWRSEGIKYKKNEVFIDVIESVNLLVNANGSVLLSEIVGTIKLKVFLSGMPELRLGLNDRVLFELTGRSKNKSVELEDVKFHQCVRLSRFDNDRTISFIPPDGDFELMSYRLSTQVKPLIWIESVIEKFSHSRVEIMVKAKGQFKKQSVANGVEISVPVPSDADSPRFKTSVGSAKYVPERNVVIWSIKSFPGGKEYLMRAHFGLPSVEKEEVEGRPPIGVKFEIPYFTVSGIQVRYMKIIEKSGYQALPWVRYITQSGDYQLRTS

[3] = molecular target: T2, GLuc-tagged T144A mutant AP-1A (μ subunit) (UniProt Q9BXS5 1-423, T144A); conditions: partners not purified
T2 construct: μ subunit of adaptor protein complex AP-1A (AP1M1) with T144A; also called phosphorylation site mutant AP-1; source: transfected cells (PCA); not shown: GLuc1 luciferase fragment, N-terminal, kept
T2 sequence: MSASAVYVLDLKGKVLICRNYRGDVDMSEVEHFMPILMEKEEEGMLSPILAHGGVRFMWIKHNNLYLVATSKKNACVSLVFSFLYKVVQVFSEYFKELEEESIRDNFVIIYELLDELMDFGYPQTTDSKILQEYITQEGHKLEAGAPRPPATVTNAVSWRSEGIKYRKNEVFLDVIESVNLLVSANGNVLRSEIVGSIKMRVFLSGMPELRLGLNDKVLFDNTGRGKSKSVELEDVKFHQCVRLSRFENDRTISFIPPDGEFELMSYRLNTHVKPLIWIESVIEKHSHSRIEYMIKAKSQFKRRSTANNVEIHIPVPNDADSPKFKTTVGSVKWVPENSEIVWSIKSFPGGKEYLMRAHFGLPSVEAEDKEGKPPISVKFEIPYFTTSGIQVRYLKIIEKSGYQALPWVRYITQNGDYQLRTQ

GLuc1-tagged μ subunit of the AP-4 complex, sequence (O00189 whole entry, one chain of several): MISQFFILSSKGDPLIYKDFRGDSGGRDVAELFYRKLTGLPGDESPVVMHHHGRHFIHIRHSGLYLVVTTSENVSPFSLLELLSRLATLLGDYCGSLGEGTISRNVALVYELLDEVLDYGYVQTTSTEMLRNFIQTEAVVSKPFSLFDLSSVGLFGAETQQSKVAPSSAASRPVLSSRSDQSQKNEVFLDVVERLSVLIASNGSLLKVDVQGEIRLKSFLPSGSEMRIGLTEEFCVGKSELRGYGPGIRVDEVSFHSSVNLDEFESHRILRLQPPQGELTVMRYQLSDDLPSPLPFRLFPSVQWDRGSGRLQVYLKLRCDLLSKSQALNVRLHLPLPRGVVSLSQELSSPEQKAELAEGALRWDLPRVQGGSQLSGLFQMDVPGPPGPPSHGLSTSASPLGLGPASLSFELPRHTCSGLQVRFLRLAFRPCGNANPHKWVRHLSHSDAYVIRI

| Molecule | fold reduction of binding (NLR) relative to WT NS2 [1] | fold reduction of binding (NLR) relative to WT AP-1B [2] | fold reduction of binding (NLR) relative to WT AP-1A [3] |
| --- | --- | --- | --- |
| GLuc-NS2 quadruple mutant (L202A-L203A-L216A-L217A) (natural protein) | 4 fold |  |  |
| GLuc-NS2 double mutant (L202A-L217A) (natural protein) | 3 fold |  |  |
| B1 |  | ~2 fold | ~2 fold |
